In patent US20140242093A1, “METHODS AND COMPOSITIONS FOR MODULATING THE INNATE IMMUNE RESPONSE AND/OR MYOGENESIS IN A MAMMALIAN SUBJECT” (FRED HUTCHINSON CANCER RESEARCH CENTER, priority 2011, published 2014):

Test system: control human primary myoblasts
Assay: Expression microarray of primary myoblasts transduced with lentivirus carrying DUX4-fl, DUX4-s or GFP
Description: Primary human myoblasts were collected and cultured as previously described (Snider et al., 2010). Primary myoblasts were maintained at or below 70% confluency for proliferation. For differentiation, cells were allowed to reach 95-100% confluency in growth medium. Once confluency was reached, the cells were changed to differentiation medium (F10 media supplemented with 1% horse serum, 10 μg/mL insulin, and 10 μg/mL transferrin, penicillin/streptomycin) and maintained for 4 days. Human RD cells were grown in DMEM in 10% bovine calf serum (Hyclone) and penicillin/streptomycin. The primary myoblasts were transduced with lentivirus carrying DUX-fl, DUX4- or GFP (MOI=15).
Expression microarrays were performed on the transduced cells at 24 hours after transduction as follows. […] Samples were analyzed by Illumina Human Whole Genome microarrays. Probe intensities were corrected, normalized, and summarized by the Lumi package of Bioconductor (Du et al., 2008). Differentially expressed genes were identified by the LIMMA package of Bioconductor (Wettenhall and Smyth, 2004). Gene set enrichment analysis (GSEA) was performed using the Bioconductor GOstats package (Falcon and Gentleman, 2007).

B1: DUX4-s: short splice form of DUX4 (SEQ ID NO:112), keeps the double-homeobox domains, lacks the C-terminal activation domain (protein, listed as Homo sapiens)
chain: MALPTPSDSTLPAEARGRGRRRRLVWTPSQSEALRACFERNPYPGIATRERLAQAIGIPEPRVQIWFQNERSRQLRQHRRESRPWPGRRGPPEGRRKRTAVTGSQTALLLRAFEKDRFPGIAAREELARETGLPESRIQIWFQNRRARHPGQGGRAPAQV
- MYBPHL expression fc (cultured human skeletal muscle): −0.5205
- MYF5 expression fc (cultured human skeletal muscle): 0.291
- MYH13 expression fc (cultured human skeletal muscle): −1.541
- NACC2 expression fc (cultured human skeletal muscle): 0.9823
- NFIL3 expression fc (cultured human skeletal muscle): 0.3195
- NFKB1 expression fc (cultured human skeletal muscle): 0.05546
- NFKBIZ expression fc (cultured human skeletal muscle): −0.2644
- NINJ1 expression fc (cultured human skeletal muscle): 0.2107
- NPTX2 expression fc (cultured human skeletal muscle): 0.122
- NRXN2 expression fc (cultured human skeletal muscle): −0.2444
- NT5E expression fc (cultured human skeletal muscle): 0.489
- OCEL1 expression fc (cultured human skeletal muscle): −0.0991
- P2RX6 expression fc (cultured human skeletal muscle): −0.7432
- PARP3 expression fc (cultured human skeletal muscle): 0.1606
- PCK2 expression fc (cultured human skeletal muscle): 0.4194
- PCTK3 expression fc (cultured human skeletal muscle): 0.5932
- PDK4 expression fc (cultured human skeletal muscle): 0.02699
- PDPN expression fc (cultured human skeletal muscle): −0.2902
- PFKFB4 expression fc (cultured human skeletal muscle): 0.4582
- PHF15 expression fc (cultured human skeletal muscle): 0.2557
- PHLDA3 expression fc (cultured human skeletal muscle): 0.1958
- PLA2G4C expression fc (cultured human skeletal muscle): 0.07403
- PLEKHA4 expression fc (cultured human skeletal muscle): 1.33
- PLIN2 expression fc (cultured human skeletal muscle): 0.6107
- PLXNB1 expression fc (cultured human skeletal muscle): −0.09843
- PLXNB2 expression fc (cultured human skeletal muscle): 0.2031
- PPAP2B expression fc (cultured human skeletal muscle): 0.05885
- PPP3CC expression fc (cultured human skeletal muscle): 0.2562
- PRDM1 expression fc (cultured human skeletal muscle): −0.09376
- PRKCD expression fc (cultured human skeletal muscle): 0.349
- PSMB10 expression fc (cultured human skeletal muscle): 0.7464
- PSME2 expression fc (cultured human skeletal muscle): 0.4304
- PTGES expression fc (cultured human skeletal muscle): 0.3116
- PTPRU expression fc (cultured human skeletal muscle): 0.2612
- RALGDS expression fc (cultured human skeletal muscle): 0.0686
- RBCK1 expression fc (cultured human skeletal muscle): 0.326
- RBM43 expression fc (cultured human skeletal muscle): 0.3215
- RCAN1 expression fc (cultured human skeletal muscle): 0.9917
- RELB expression fc (cultured human skeletal muscle): 0.2914
- RGS20 expression fc (cultured human skeletal muscle): 0.08652
- RHBDF2 expression fc (cultured human skeletal muscle): 0.3815
- RRAS expression fc (cultured human skeletal muscle): −0.1908
- RRBP1 expression fc (cultured human skeletal muscle): 0.09904
- RTKN expression fc (cultured human skeletal muscle): −0.2678
- RTTN expression fc (cultured human skeletal muscle): 0.009387
- RUSC1 expression fc (cultured human skeletal muscle): 0.03464
- SERPING1 expression fc (cultured human skeletal muscle): 1.214
- SESN1 expression fc (cultured human skeletal muscle): −0.1133
- SHISA5 expression fc (cultured human skeletal muscle): −0.2735
- SIX5 expression fc (cultured human skeletal muscle): −0.3614
- SLC16A3 expression fc (cultured human skeletal muscle): 0.4873
- SLC22A18 expression fc (cultured human skeletal muscle): −0.05235
- SLC25A28 expression fc (cultured human skeletal muscle): 0.7251
- SLC39A14 expression fc (cultured human skeletal muscle): 0.4801
- SPTLC3 expression fc (cultured human skeletal muscle): 0.2428
- SQSTM1 expression fc (cultured human skeletal muscle): 0.1771
- SRGN expression fc (cultured human skeletal muscle): 0.2031
- STC1 expression fc (cultured human skeletal muscle): 0.8132
- STEAP3 expression fc (cultured human skeletal muscle): −0.291
- SUSD2 expression fc (cultured human skeletal muscle): −2.022
- TAPBP expression fc (cultured human skeletal muscle): 0.474
- TCEA3 expression fc (cultured human skeletal muscle): −0.1206
- TCP11L1 expression fc (cultured human skeletal muscle): 0.7816
- TMEM45A expression fc (cultured human skeletal muscle): 0.4128
- TMEM173 expression fc (cultured human skeletal muscle): 0.3673
- TNFAIP2 expression fc (cultured human skeletal muscle): 0.05713
- TNFRSF1A expression fc (cultured human skeletal muscle): 0.2727
- TNFRSF6B expression fc (cultured human skeletal muscle): 0.00925
- TNFSF13B expression fc (cultured human skeletal muscle): 2.19
- TNS3 expression fc (cultured human skeletal muscle): −0.1648
- TRAF3IP2 expression fc (cultured human skeletal muscle): 0.7299
- TRIP6 expression fc (cultured human skeletal muscle): 0.003438
- TRNP1 expression fc (cultured human skeletal muscle): 0.007844
- TSC22D3 expression fc (cultured human skeletal muscle): 0.2002
- VASN expression fc (cultured human skeletal muscle): 0.2877
- VEZF1 expression fc (cultured human skeletal muscle): −0.6876
- XBP1 expression fc (cultured human skeletal muscle): 0.3357
- ZBTB4 expression fc (cultured human skeletal muscle): 0.002479
- ZC3H12A expression fc (cultured human skeletal muscle): 0.5426
- ZFHX3 expression fc (cultured human skeletal muscle): 0.5029
- ZFP36L2 expression fc (cultured human skeletal muscle): 0.7338
- ZFP90 expression fc (cultured human skeletal muscle): −0.1973
- ZNF337 expression fc (cultured human skeletal muscle): −0.04356
- ZNF395 expression fc (cultured human skeletal muscle): 0.2584
- Log2 Fc AMACR (vs lenti-GFP, 24 h): 0.1 log2
- Log2 Fc ARIH1 (vs lenti-GFP, 24 h): 0.8 log2
- Log2 Fc ARS2 (vs lenti-GFP, 24 h): −0.2 log2
- Log2 Fc CBARA1 (vs lenti-GFP, 24 h): −0.2 log2
- Log2 Fc CD24 (vs lenti-GFP, 24 h): −0.4 log2
- Log2 Fc CSAG3 (vs lenti-GFP, 24 h): 0.1 log2
- Log2 Fc CSE1L (vs lenti-GFP, 24 h): 0.1 log2
- Log2 Fc CWC15 (vs lenti-GFP, 24 h): 0.1 log2
- Log2 Fc CXADR (vs lenti-GFP, 24 h): −0.1 log2
- Log2 Fc CXCR4 (vs lenti-GFP, 24 h): −0.1 log2
- Log2 Fc DBR1 (vs lenti-GFP, 24 h): 0.2 log2
- Log2 Fc DEFB103B (vs lenti-GFP, 24 h): 0.1 log2
- Log2 Fc FBXO33 (vs lenti-GFP, 24 h): 0.2 log2
- Log2 Fc FGFR3 (vs lenti-GFP, 24 h): 0.0 log2
- Log2 Fc FLJ45337 (vs lenti-GFP, 24 h): −0.2 log2
- Log2 Fc GTF2F1 (vs lenti-GFP, 24 h): 0.3 log2
- Log2 Fc HNRNPCL1 (vs lenti-GFP, 24 h): −0.1 log2
- Log2 Fc HOXB2 (vs lenti-GFP, 24 h): 0.0 log2
- Log2 Fc HSPA2 (vs lenti-GFP, 24 h): −0.3 log2
- Log2 Fc ID2 (vs lenti-GFP, 24 h): 0.3 log2
- Log2 Fc IFRD1 (vs lenti-GFP, 24 h): −0.2 log2
- Log2 Fc JUP (vs lenti-GFP, 24 h): −0.1 log2
- Log2 Fc KHDC1L (vs lenti-GFP, 24 h): −0.1 log2
- Log2 Fc MBD3L2 (vs lenti-GFP, 24 h): 0.0 log2
- Log2 Fc MED26 (vs lenti-GFP, 24 h): 0.1 log2
- Log2 Fc MGC10997 (vs lenti-GFP, 24 h): −0.3 log2
- Log2 Fc PABPN1 (vs lenti-GFP, 24 h): −0.3 log2
- Log2 Fc PELI1 (vs lenti-GFP, 24 h): 0.1 log2
- Log2 Fc PNMA6B (vs lenti-GFP, 24 h): −0.2 log2
- Log2 Fc PRAMEF1 (vs lenti-GFP, 24 h): 0.1 log2
- Log2 Fc PVRL3 (vs lenti-GFP, 24 h): 0.4 log2
- Log2 Fc RMRP (vs lenti-GFP, 24 h): 0.1 log2
- Log2 Fc RNGTT (vs lenti-GFP, 24 h): −0.6 log2
- Log2 Fc RPPH1 (vs lenti-GFP, 24 h): 0.2 log2
- Log2 Fc RRN3 (vs lenti-GFP, 24 h): 0.1 log2
- Log2 Fc SFRS2B (vs lenti-GFP, 24 h): −0.3 log2
- Log2 Fc SFRS17A (vs lenti-GFP, 24 h): 0.2 log2
- Log2 Fc SIAH1 (vs lenti-GFP, 24 h): −0.1 log2
- Log2 Fc SLC2A14 (vs lenti-GFP, 24 h): 0.2 log2
- Log2 Fc SLC34A2 (vs lenti-GFP, 24 h): 0.0 log2
- Log2 Fc SNIP1 (vs lenti-GFP, 24 h): −0.2 log2
- Log2 Fc SON (vs lenti-GFP, 24 h): −0.3 log2
- Log2 Fc SPRYD5 (vs lenti-GFP, 24 h): −0.1 log2
- Log2 Fc SPTY2D1 (vs lenti-GFP, 24 h): −0.3 log2
- Log2 Fc TFIP11 (vs lenti-GFP, 24 h): 0.1 log2
- Log2 Fc THOC4 (vs lenti-GFP, 24 h): −0.2 log2
- Log2 Fc TPRX1 (vs lenti-GFP, 24 h): −0.1 log2
- Log2 Fc TRIM23 (vs lenti-GFP, 24 h): 0.6 log2
- Log2 Fc TRIM43 (vs lenti-GFP, 24 h): 0.0 log2
- Log2 Fc USP29 (vs lenti-GFP, 24 h): −0.1 log2
- Log2 Fc ZNF217 (vs lenti-GFP, 24 h): −0.3 log2
- Log2 Fc ZNF705A (vs lenti-GFP, 24 h): −0.1 log2
- Log2 Fc ZNHIT6 (vs lenti-GFP, 24 h): 0.3 log2
- Log2 Fc ZSCAN2 (vs lenti-GFP, 24 h): −0.2 log2
- Log2 Fc ZSCAN4 (vs lenti-GFP, 24 h): 0.0 log2
